Measurements from patent US20230031262A1, “TREATMENT OF MILD TRAUMATIC BRAIN INJURY” (OXEIA BIOPHARMACEUTICALS, INC., priority 2019, published 2023).
Where no end group is shown, it is not given here. The star is where a group is joined. Octanoyl = CCCCCCCC(=O)*

How the values were obtained:
[1] = in vivo; cited from earlier work
[2] = stability of reconstituted OXE-103 drug product on storage; format: physicochemical; conditions: reconstituted OXE-103 for SC administration 14 mg in 5 mL multi-use vials
Protocol: OXE-103 drug product, placebo, and diluent are stored refrigerated between 2° C. to 8° C. (35.6° F. to 46.4° F.). Reconstituted OXE-103 for SC administration 14 mg (in 5 mL multi-use vials) is stable for up to 14 days at 10° C. or for up to 3 days when stored at 25° C./1000 Lux. The reconstituted drug product (and placebo) is stored refrigerated at 2° C. to 8° C. (35.6° F. to 46.4° F.).

[3] = in vivo; cited from earlier work; remark: listed apart in the source
[4] = in vivo; cited from earlier work; remark: listed apart in the source

For “ghrelin (GSS(Octanoyl)FLSPEHQRVQQRKESKKPPAKLQPR; UniProt Q9UBU3 24-51, looked up) [OXE-103]”, the “adverse effects of long term use” value [1] is listed as “increased appetite, weight gain, and adiposity”, the “stable for up to (reconstituted, storage time)” value ([2]; at 10° C.) is listed as “up to 14 days” and the “stable for up to (reconstituted, storage time)” value ([2]; stored at 25° C./1000 Lux) is listed as “up to 3 days”. For the same substance, the safety [3] was “quite safe” and the serum half-life [4] was “about 30 minutes”.
